We go through two molecules from US20260056186A1 (JIANGSU HENGRUI PHARMACEUTICALS, published 2026).

For assay [1], the target named is T1, APRIL (Acro Biosystems, Cat: APL-H52D1) (UniProt O75888 115-250, limits assumed).
T1 construct: also called ARPIL
T1 sequence (looked up): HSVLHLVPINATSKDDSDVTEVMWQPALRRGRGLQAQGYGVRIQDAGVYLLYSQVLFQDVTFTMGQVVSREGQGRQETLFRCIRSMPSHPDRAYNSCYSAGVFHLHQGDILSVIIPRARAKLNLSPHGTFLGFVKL
The assay is described as follows: ELISA, APRIL coated at 1 ug/mL, anti-human Fc-HRP, OD450. As for the experimental part:
(§1) The capabilities of B613301, B613302, and B613303, which are fusion proteins of anifrolumab and TACI-BCMA, to bind to BAFF and APRIL were assessed by ELISA as follows: [0548] BAFF (PeproTech, Cat: 310-13) or ARPIL (Acro Biosystems, Cat: APL-H52D1) was diluted to 1 μg/mL with PBS, and a 96-well plate (Costar, Cat: 3590) was coated with the dilution overnight at 4° C. The plate was washed with PBST and blocked with Blocking Buffer (PBST containing 1% BSA) at 37° C. for 1 h. The plate was tapped. The test antibodies were diluted with Blocking Buffer. Incubation was performed at 37° C. for 1.5 h. The plate was washed with PBST. An HRP-mouse anti-human Fc antibody (GenScript, Cat: A01854-200) was diluted with Blocking Buffer. Incubation was performed at 37° C. for 40 min. The plate was washed with PBST. 100 μL of TMB substrate solution (Biopanda, Cat: TMB-S-003) was added, and color development was performed at 37° C. for 3 min. 100 μL of ELISA stop solution (Solarbio, Cat: C1058) was added. OD450 was measured.
A general note: An ELISA detects its analyte on a solid surface through an enzyme-linked reagent.

In assay [2] the target is T1, APRIL (Acro Biosystems, Cat: APL-H52D1). The assay is described as follows: ELISA, APRIL coated; reference telitacicept; range told of the 3 fusion proteins, upper end tied to B613301 by Table 8. How it is done: as §1
Assay [3] has the same target. The assay can be described thus: ELISA, APRIL coated; reference telitacicept; range told of the 3 fusion proteins, lower end tied to B613302 by Table 8. As for the experimental part: as §1

B1: B613301 (other)
heavy: EVQLVQSGAEVKKPGESLKISCKGSGYIFTNYWIAWVRQMPGKGLESMGIIYPGDSDIRYSPSFQGQVTISADKSITTAYLQWSSLKASDTAMYYCARHDIEGFDYWGRGTLVTVSSASTKGPSVFPLAPSSKSTSGGTAALGCLVKDYFPEPVTVSWNSGALTSGVHTFPAVLQSSGLYSLSSVVTVPSSSLGTQTYICNVNHKPSNTKVDKRVEPKSCDKTHTCPPCPAPEFEGGPSVFLFPPKPKDTLMISRTPEVTCVVVDVSHEDPEVKFNWYVDGVEVHNAKTKPREEQYNSTYRVVSVLTVLHQDWLNGKEYKCKVSNKALPASIEKTISKAKGQPREPQVYTLPPSRDELTKNQVSLTCLVKGFYPSDIAVEWESNGQPENNYKTTPPVLDSDGSFFLYSKLTVDKSRWQQGNVFSCSVMHEALHNHYTQKSLSLSPGK
light: EIVLTQSPGTLSLSPGERATLSCRASQSVSSSFFAWYQQKPGQAPRLLIYGASSRATGIPDRLSGSGSGTDFTLTITRLEPEDFAVYYCQQYDSSAITFGQGTRLEIKRTVAAPSVFIFPPSDEQLKSGTASVVCLLNNFYPREAKVQWKVDNALQSGNSQESVTEQDSKDSTYSLSSTLTLSKADYEKHKVYACEVTHQGLSSPVTKSFNRGECGGGGSGGGGSLSCRKEQGKFYDHLLRDCISCASICGQHPKQCAYFCENKLRSPGMLQMAGQCSQNEYFDSLLHACIPCQLRCSSNTPPLTCQRYCNASVTNSVKGTNA
notes: Fusion protein of anifrolumab and TACI-BCMA
For orientation: EC50 means the concentration that produces a half-maximal response. Read a low EC50 as a more potent agent. For B1, in assay [1], the midpoint of the response, the EC50, lay at 0.201 nM and the Emax came to 2.49. Further, the “EC50 relative to telitacicept” value in assay [2] was found to be 0.167 fold.

B2: B613302 (other)
heavy: EVQLVQSGAEVKKPGESLKISCKGSGYIFTNYWIAWVRQMPGKGLESMGIIYPGDSDIRYSPSFQGQVTISADKSITTAYLQWSSLKASDTAMYYCARHDIEGFDYWGRGTLVTVSSASTKGPSVFPLAPSSKSTSGGTAALGCLVKDYFPEPVTVSWNSGALTSGVHTFPAVLQSSGLYSLSSVVTVPSSSLGTQTYICNVNHKPSNTKVDKRVEPKSCDKTHTCPPCPAPEFEGGPSVFLFPPKPKDTLMISRTPEVTCVVVDVSHEDPEVKFNWYVDGVEVHNAKTKPREEQYNSTYRVVSVLTVLHQDWLNGKEYKCKVSNKALPASIEKTISKAKGQPREPQVYTLPPSRDELTKNQVSLTCLVKGFYPSDIAVEWESNGQPENNYKTTPPVLDSDGSFFLYSKLTVDKSRWQQGNVFSCSVMHEALHNHYTQKSLSLSPGK
light: EIVLTQSPGTLSLSPGERATLSCRASQSVSSSFFAWYQQKPGQAPRLLIYGASSRATGIPDRLSGSGSGTDFTLTITRLEPEDFAVYYCQQYDSSAITFGQGTRLEIKRTVAAPSVFIFPPSDEQLKSGTASVVCLLNNFYPREAKVQWKVDNALQSGNSQESVTEQDSKDSTYSLSSTLTLSKADYEKHKVYACEVTHQGLSSPVTKSFNRGECGGGGSGGGGSMLQMAGQCSQNEYFDSLLHACIPCQLRCSSNTPPLTCQRYCNASVTNSVKGTNALSCRKEQGKFYDHLLRDCISCASICGQHPKQCAYFCENKLRSPG
notes: as for B1
Turning to B2, in assay [3], the “EC50 relative to telitacicept” value was 0.1 fold. For the same molecule, in assay [1], the concentration giving a half-maximal response (EC50) amounted to 0.124 nM and the Emax stood at 2.52.
